According to patent publication US20080064079:

Assays:
[1] = target: N-alpha-benzoylated peptides of SEQ ID NOs: 3-19
[2] = target: T1, Bz-Ala-Ala-Tyr-Arg-His-Ala-Gly
T1 chain: AAYRHAG

B1: trypsin variant Tn K60E, E151H, N143H, D189K (protein)
chain: IVGGYTCQENSVPYQVSLNSGYHFCGGSLINDQWVVSAAHCYESRIQVRLGEHNINVLEGNEQFVNAAKIIKHPNFDRKTLNNDIMLIKLSSPVKLNARVATVALPSSCAPAGTQCLISGWGHTLSSGVNHPDLLQCLDAPLLPQADCEASYPGKITDNMVCVGFLEGGKKSCQGDSGGPVVCNGELQGIVSWGYGCALPDNPGVYTKVCNYVDWIQDTIAAN
rate of reaction (initial rate of peptide consumption, HPLC) [1]: has a strong preference for a cleavage site comprising L, F or Y in position P1, R or K in position P1′ and His in position P2′ | yield of the transamidation product with Arg-His-Ala-Lys(6-CF)-OH (HPLC) [2]: obtained in a yield of >99%
